Test results reported in article PMC2599749 (Protein expression and purification, 2008).

Experiments:
[1] = target: the molecule itself; experiment: HPLC/ESI mass spectrometry
non-reducing SDS-PAGE = target: the molecule itself; experiment: non-reducing SDS-PAGE

B1: bZIP domain of Activating Transcription Factor 5 (ATF5), untagged (domain or fragment, UniProt Q9Y2D1 208-271, looked up)
chain: GDRKQKKRDQNKSAALRYRQRKRAEGEALEGECQGLEARNRELKERAESVEREIQYVKDLLIEV
- stoichiometry N [1]: 2
- monomer:dimer ratio (densitometry of the SDS-PAGE gel) (non-reducing SDS-PAGE): 1.7 dimer per 1.0 monomer
